Test results as given in doi:10.1101/2024.10.31.621230 (bioRxiv, 2024).

B1: LamB (natural protein, UniProt P02943 1-446, looked up)
chain: MMITLRKLPLAVAVAAGVMSAQAMAVDFHGYARSGIGWTGSGGEQQCFQTTGAQSKYRLGNECETYAELKLGQEVWKEGDKSFYFDTNVAYSVAQQNDWEATDPAFREANVQGKNLIEWLPGSTIWAGKRFYQRHDVHMIDFYYWDISGPGAGLENIDVGFGKLSLAATRSSEAGGSSSFASNNIYDYTNETANDVFDVRLAQMEINPGGTLELGVDYGRANLRDNYRLVDGASKDGWLFTAEHTQSVLKGFNKFVVQYATDSMTSQGKGLSQGSGVAFDNEKFAYNINNNGHMLRILDHGAISMGDNWDMMYVGMYQDINWDNDNGTKWWTVGIRPMYKWTPIMSTVMEIGYDNVESQRTGDKNNQYKITLAQQWQAGDSIWSRPAIRVFATYAKWDEKWGYDYTGNADNNANFGKAVPADFNGGSFGRGDSDEWTFGAQMEIWW
modifications: 35S-methionine
notes: LamB, the 18-stranded outer membrane protein used as a model substrate; Gunasinghe et al., 2018; Thewasano et al., 2023) for the substrate constructs; also called trimeric-LamB; source: in vitro translated in rabbit reticulocyte lysate with 35S-methionine, assembled into EMM
B2: OmpF (natural protein, UniProt P02931 1-362, looked up)
chain: MMKRNILAVIVPALLVAGTANAAEIYNKDGNKVDLYGKAVGLHYFSKGNGENSYGGNGDMTYARLGFKGETQINSDLTGYGQWEYNFQGNNSEGADAQTGNKTRLAFAGLKYADVGSFDYGRNYGVVYDALGYTDMLPEFGGDTAYSDDFFVGRVGGVATYRNSNFFGLVDGLNFAVQYLGKNERDTARRSNGDGVGGSISYEYEGFGIVGAYGAADRTNLQEAQPLGNGKKAEQWATGLKYDANNIYLAANYGETRNATPITNKFTNTSGFANKTQDVLLVAQYQFDFGLRPSIAYTKSKAKDVEGIGDVDLVNYFEVGATYYFNKNMSTYVDYIINQIDSDNKLGVGSDDTVAVGIVYQF
modifications: 35S-methionine
notes: OmpF, the 16-stranded outer membrane protein used as a model substrate; Gunasinghe et al., 2018; Thewasano et al., 2023) for the substrate constructs; source: in vitro translated in rabbit reticulocyte lysate with 35S-methionine, assembled into EMM

Molecular target: the molecule itself
Assay: native gel or EMSA; EMM assembly assay: 35S-labelled in vitro translated substrate incubated with EMM at 30°C for 15, 45 or 90 min, EMM solubilised with 1.5% DDM, BN-PAGE, radio-imaging; homotrimer at approximately 160 kDa

Protein	stoichiometry N
B1	3
B2	3
